Test results published in the supplement of paper PMC10126150.
± gives the standard deviation of the averaged measurements.

Test system: ATP
Assay: switch fluorescence ratio, 500 uM ATP over buffer (Cy3 cluster intensity, sum of 5 cycles each) (fold (ratio)); higher = stronger signal-on switching upon ATP binding; sequences stand for … in TCGTCGGCAGCGTCAGATGTGTATAAGAGACAGTTTTTTTTTTTTTTTTTTTTTTTTT…TC
Settings: aptamer strand: ATP DNA aptamer (quencher-CACCTGGGGGAGTATTGCGGAGGAAGG + anchor), 100 nM annealed; ATP concentration: 500 uM
Outline: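 Cy3-labelled switching-strand clusters on a modified Illumina MiSeq flow-cell were annealed to 100 nM quencher-labelled ATP aptamer and imaged first in selection buffer, then after 15 min with 500 uM ATP at 22 °C. NaOH stripping and re-annealing separated each of five buffer/ATP cycles, and clusters outside 100-1000 RFU were excluded. The fluorescence ratio sums target-cycle Cy3 intensity over buffer-cycle Cy3 intensity per cluster and averages it per switch-domain sequence.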
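Also: ATP exposure 15 min at 22 °C before imaging.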

| Sequence | switch fluorescence ratio |
| --- | --- |
| ATTATCTAGG | 0.985 ± 0.013 |
| ATTATGAACC | 1.04 ± 0.016 |
| ATTATGAATG | 0.989 ± 0.0071 |
| ATTATGGGGT | 1 ± 0.017 |
| ATTATGTCCA | 0.96991 ± 0.00059 |
| ATTATTAGGA | 1.04 ± 0.088 |
| ATTATTATGT | 0.978 ± 0.01 |
| ATTATTTTAT | 1.05 ± 0.069 |
| ATTCAATCGA | 1.018 ± 0.0031 |
| ATTCACTTGA | 1.08 ± 0.061 |
| ATTCAGGTC | 1 ± 0.038 |
| ATTCATATTG | 1.01 ± 0.042 |
| ATTCATGGGG | 0.98 ± 0.019 |
| ATTCATTAGG | 1.02 ± 0.034 |
| ATTCATTTAG | 0.996 ± 0.013 |
| ATTCCATGGT | 0.9909 ± 0.0052 |
| ATTCCCCGGG | 1.66 ± 0.68 |
| ATTCCCGGAT | 1.04 ± 0.046 |
| ATTCCGTATA | 1.25 ± 0.022 |
| ATTCCTAGA | 0.992 ± 0.021 |
| ATTCCTGTT | 1.004 ± 0.0019 |
| ATTCGAGGGG | 1.03 ± 0.061 |
| ATTCGCAGCC | 1.55 ± 0.029 |
| ATTCGCCGGT | 0.959 ± 0.0066 |
| ATTCGCCTAG | 0.987 ± 0.012 |
| ATTCGGGCTT | 0.976 ± 0.013 |

| Sequence | switch fluorescence ratio |
| --- | --- |
| ATTCGGGGGC | 1.11 ± 0.2 |
| ATTCGGTCAT | 1 ± 0.015 |
| ATTCGTTGTT | 0.997 ± 0.01 |
| ATTCGTTTTG | 1.03 ± 0.017 |
| ATTCTCGTTA | 0.996 ± 0.0053 |
| ATTCTCTTAT | 1.02 ± 0.059 |
| ATTCTGGAAT | 1.02 ± 0.06 |
| ATTCTGGGGT | 1.04 ± 0.07 |
| ATTCTGTTAG | 0.993 ± 0.0092 |
| ATTCTTAGGG | 1.12 ± 0.27 |
| ATTCTTATTG | 0.9801 ± 0.0021 |
| ATTCTTCTTA | 1.028 ± 0.0033 |
| ATTCTTTACG | 1.03 ± 0.015 |
| ATTCTTTGGG | 1.01 ± 0.02 |
| ATTCTTTTTT | 0.997 ± 0.024 |
| ATTGAACAT | 0.984 ± 0.015 |
| ATTGAACGTT | 0.979 ± 0.015 |
| ATTGAAGCGG | 1.01 ± 0.05 |
| ATTGAATGTG | 0.973 ± 0.013 |
| ATTGAATTTG | 0.9999 ± 0.0013 |
| ATTGAGAAGT | 0.996 ± 0.031 |
| ATTGAGAATC | 0.962 ± 0.035 |
| ATTGAGATCG | 1.01 ± 0.033 |
| ATTGAGGGAG | 1 ± 0.024 |
| ATTGAGTGTT | 0.987 ± 0.034 |
| ATTGATGACT | 1.04 ± 0.027 |

| Sequence | switch fluorescence ratio |
| --- | --- |
| ATTGATGAGG | 0.972 ± 0.012 |
| ATTGATGGGG | 0.976 ± 0.042 |
| ATTGATTGTA | 0.995 ± 0.035 |
| ATTGCATAGG | 0.9951 ± 0.0021 |
| ATTGCCGGAG | 0.999 ± 0.037 |
| ATTGCGAGGC | 1.04 ± 0.029 |
| ATTGCGGCTA | 1.03 ± 0.033 |
| ATTGCGTGTA | 1.023 ± 0.0085 |
| ATTGCGTTGG | 0.996 ± 0.013 |
| ATTGCGTTTG | 1.01 ± 0.026 |
| ATTGCTAGGG | 1.03 ± 0.023 |
| ATTGCTGCGA | 1.006 ± 0.0075 |
| ATTGCTTACG | 1.14 ± 0.19 |
| ATTGGAATTA | 0.985 ± 0.047 |
| ATTGGAGGCA | 1.03 ± 0.03 |
| ATTGGAGTAG | 1.01 ± 0.014 |
| ATTGGATATT | 1.02 ± 0.015 |
| ATTGGCGCGG | 0.969 ± 0.012 |
| ATTGGCGTTT | 0.996 ± 0.049 |
| ATTGGGAAGA | 1.02 ± 0.028 |
| ATTGGGAATC | 0.9923 ± 0.0027 |
| ATTGGGAGGA | 1 ± 0.014 |
| ATTGGGAGGG | 1.022 ± 0.0026 |
| ATTGGGGAGG | 0.974 ± 0.012 |
| ATTGGGGATG | 0.9819 ± 0.0097 |
| ATTGGGGGAG | 0.987 ± 0.033 |

| Sequence | switch fluorescence ratio |
| --- | --- |
| ATTGGGGGGC | 1.01 ± 0.036 |
| ATTGGGGTAT | 1 ± 0.03 |
| ATTGGGTTGT | 0.973 ± 0.015 |
| ATTGGGTTTT | 0.999 ± 0.022 |
| ATTGGTAAGG | 0.995 ± 0.025 |
| ATTGGTATAT | 1.007 ± 0.0068 |
| ATTGGTATCT | 0.979 ± 0.014 |
| ATTGGTCATA | 1 ± 0.028 |
| ATTGGTGGTT | 1 ± 0.074 |
| ATTGGTTACG | 1.01 ± 0.028 |
| ATTGGTTTGG | 1.032 ± 0.01 |
| ATTGTAGGGT | 0.972 ± 0.021 |
| ATTGTATTG | 0.986 ± 0.014 |
| ATTGTATTGT | 0.987 ± 0.03 |
| ATTGTCGG | 0.972 ± 0.028 |
| ATTGTGCGGG | 1.01 ± 0.036 |
| ATTGTGCTGG | 0.983 ± 0.018 |
| ATTGTGGAGA | 1.03 ± 0.032 |
| ATTGTGGGAC | 0.996 ± 0.077 |
| ATTGTGGGCG | 0.952 ± 0.017 |
| ATTGTGGGCT | 0.967 ± 0.063 |
| ATTGTTACTG | 1.06 ± 0.021 |
| ATTGTTACTT | 1.02 ± 0.019 |
| ATTGTTAGGG | 0.985 ± 0.019 |
| ATTGTTATTT | 1.02 ± 0.018 |
| ATTGTTGTAG | 0.985 ± 0.00069 |

| Sequence | switch fluorescence ratio |
| --- | --- |
| ATTGTTTATT | 0.998 ± 0.012 |
| ATTGTTTGAG | 0.982 ± 0.0032 |
| ATTGTTTGTT | 1.01 ± 0.016 |
| ATTGTTTTGG | 0.981 ± 0.028 |
| ATTGTTTTTC | 1.04 ± 0.073 |
| ATTTAAAGAT | 0.987 ± 0.049 |
| ATTTAAAGGT | 0.964 ± 0.018 |
| ATTTAAGAGA | 1.01 ± 0.051 |
| ATTTAAGAGG | 1 ± 0.041 |
| ATTTAAGCTC | 0.987 ± 0.024 |
| ATTTAAGTGT | 1 ± 0.021 |
| ATTTAATTAA | 1.02 ± 0.056 |
| ATTTAATTGT | 0.986 ± 0.053 |
| ATTTACATAT | 1.03 ± 0.015 |
| ATTTACGGGG | 1.04 ± 0.0031 |
| ATTTACTCGT | 1.014 ± 0.0017 |
| ATTTAGAATG | 1.02 ± 0.011 |
| ATTTAGGTTA | 0.989 ± 0.021 |
| ATTTAGTTCG | 0.9606 ± 0.0073 |
| ATTTATAATT | 0.992 ± 0.028 |
| ATTTATAGGG | 0.982 ± 0.014 |
| ATTTATCGGG | 1 ± 0.027 |
| ATTTATGGAT | 1 ± 0.023 |
| ATTTATGGGG | 1 ± 0.032 |
| ATTTATTTTT | 1.011 ± 0.002 |
| ATTTCAAGTT | 0.966 ± 0.011 |

| Sequence | switch fluorescence ratio |
| --- | --- |
| ATTTCCGTTT | 0.984 ± 0.013 |
| ATTTCGGTGG | 1.06 ± 0.044 |
| ATTTCGTCGA | 0.991 ± 0.019 |
| ATTTCTAGAA | 1.02 ± 0.015 |
| ATTTCTAGGG | 1.027 ± 0.0041 |
| ATTTCTCGGT | 1.07 ± 0.066 |
| ATTTCTTGGT | 0.9751 ± 0.0083 |
| ATTTGAATTG | 1.02 ± 0.03 |
| ATTTGAGATT | 1 ± 0.018 |
| ATTTGAGCTA | 1.04 ± 0.023 |
| ATTTGAGGGA | 1.13 ± 0.2 |
| ATTTGATCGA | 1.02 ± 0.075 |
| ATTTGATTCG | 1.008 ± 0.0087 |
| ATTTGCAGGA | 0.992 ± 0.046 |
| ATTTGCAGTG | 0.994 ± 0.021 |
| ATTTGCTGTG | 0.9916 ± 0.0062 |
| ATTTGGACGA | 1 ± 0.03 |
| ATTTGGCATC | 1.41 ± 0.47 |
| ATTTGGCGCG | 0.964 ± 0.024 |
| ATTTGGCGTG | 1.01 ± 0.099 |
| ATTTGGGCAT | 0.994 ± 0.029 |
| ATTTGGGGAC | 0.98 ± 0.016 |
| ATTTGGGGAT | 1.02 ± 0.03 |
